Experiments:
RANTES = biological target: T1, RANTES (Homo sapiens, UniProt P13501); assay: Micro-array analysis of chemokine binding peptides: RANTES; conditions: limit = start of the upper 75% of that peptide's response range
T1 construct: purchased 300-06
T1 sequence (P13501 24-91): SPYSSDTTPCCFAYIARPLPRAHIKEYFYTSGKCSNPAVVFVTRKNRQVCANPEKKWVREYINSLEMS
Description: (§1) (1) Printing: Chemokine (CK) solution (in water) was serially diluted with Print Reagent (GenTel BioSurfaces USA) to final concentrations of 50 μg and 25 μg/ml. BSA/BSA-Biotin control solutions (in water) were diluted with Print Reagent to 100 μg/ml. Amplified stock of M13 phage control (M13KEgIII Cloning Vector, New England Biolabs, Cat.No.E8101S) was stored in Tris Buffered Saline (TBS; pH7.5, 4° C.) and diluted with Print Reagent to the working titre (10^8 pfu/μl). An automated spotting robot (16 pin print tool, 0.4 mm head; BioRobotics, UK) was used to print the CK/BSA control/M13 control, 5 repeats per sample (CK 25 μg/ml and 50 μg/ml; BSA 100 μg/ml; M13 20 μl), on PATH Protein Microarray Slides (GenTel, Prod.No. 2-1005/-1025) at […], and 50-70% relative humidity. Printed micro-array slides were stored at Room Temperature (RT) or 4° C. for at least 24 h before use.
(§2) (2) Blocking: Block Buffer (500 μl/partition; PATHblock, GenTel, Prod.No. 2-1014) was applied to the slide for 1 hour at room temp (RT). After removal of Block Buffer, the slide was air dried for 25 minutes;
(§3) (3) Phage Presented Peptide Binding: Amplified recombinant phage stock was stored in TBS and diluted with Wash Buffer to working titer (10^7 pfu/μl). Recombinant phage suspension (300 μl) was applied per partition and incubated at RT for 1 hour with gentle agitation.
(§4) (4) First Washing: The slides were washed twice with Wash Buffer 300 μl/partition).
(§5) (5) Primary Antibody (Ab) Labeling: The slides were incubated with the Primary Ab (1 mg/ml diluted ×2500 (Wash Reagent), 300 μl; Mouse Anti-M13 monoclonal Ab; Amersham Biosciences, UK; Product Code 27-9420-01) for 45 minutes at RT.
(§6) (6) Second Washing: The slides were washed twice with Wash Buffer (300 μl/partition).
(§7) (7) Secondary Ab Labeling: The slides were incubated with Secondary Ab (1.5 mg/ml diluted ×5000 (Wash Reagent), 300 μl; Cy3-conjugated AffiniPure Goat Anti-Mouse IgG; Jackson ImmunoReserch Labs, USA; Product Code 115-165-062).
(§8) (8) Third Washing: The slides were washed twice with Wash Buffer (300 μl/partition).
(§9) (9) Rinse: the slides were rinsed twice with Rinse Buffer (PATHrinse, GenTel, Prod.No. 2-1018) then dried well.
(§10) (10) Scanning: The peptide-bound, labeled slide was scanned (Laser Intensity 80%, Gain 80%, Resolution 10 μm) with a ScanArray Life Scanner (Packard BioChip Technologies, USA).
(§11) (11) Analysis: Quantitative analysis of micro-array was performed by the SpotReader program of Niles Scientific (USA) and presented as Relative Fluorescence (RF) as a function of CK concentration. Micro-array readout (Cy3 fluorescence) was quantified to determine the relative binding affinities of a CBP for the CKs and by inference, the specificity of the CBP for binding to a CK.

TECK = biological target: T2, TECK (Homo sapiens, UniProt O15444); assay: Micro-array analysis of chemokine binding peptides: TECK
T2 construct: purchased 300-45
T2 sequence (O15444 24-150): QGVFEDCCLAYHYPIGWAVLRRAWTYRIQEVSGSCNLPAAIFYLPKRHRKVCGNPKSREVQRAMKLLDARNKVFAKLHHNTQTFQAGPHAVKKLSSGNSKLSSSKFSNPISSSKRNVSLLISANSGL
Description: as §1, §2, §3, §4, §5, §6, §7, §8, §9, §10, §11

SDF1-β = biological target: T3, SDF1-β (Homo sapiens, UniProt P48061); assay: Micro-array analysis of chemokine binding peptides: SDF1-β
T3 construct: purchased 300-28b
Description: as §1, §2, §3, §4, §5, §6, §7, §8, §9, §10, §11

SDF1-α = biological target: T4, SDF1-α (Homo sapiens, UniProt P48061); assay: Micro-array analysis of chemokine binding peptides: SDF1-α
T4 construct: purchased 300-28a
Description: as §1, §2, §3, §4, §5, §6, §7, §8, §9, §10, §11

MCP-4 = biological target: T5, MCP-4 (Homo sapiens, UniProt Q99616); assay: Micro-array analysis of chemokine binding peptides: MCP-4
T5 construct: purchased 300-24
Description: as §1, §2, §3, §4, §5, §6, §7, §8, §9, §10, §11

I-309 = biological target: T6, I-309 (Homo sapiens, UniProt P22362); assay: Micro-array analysis of chemokine binding peptides: I-309; conditions: limit = start of the upper 75% of that peptide's response range
T6 construct: purchased 300-37
T6 sequence (P22362 24-96): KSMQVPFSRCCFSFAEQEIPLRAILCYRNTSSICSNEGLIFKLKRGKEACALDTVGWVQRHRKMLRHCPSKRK
Description: as §1, §2, §3, §4, §5, §6, §7, §8, §9, §10, §11

MCP-1 = biological target: T7, MCP-1 (Homo sapiens, UniProt P13500); assay: Micro-array analysis of chemokine binding peptides: MCP-1
T7 construct: purchased 300-04
Description: as §1, §2, §3, §4, §5, §6, §7, §8, §9, §10, §11

Eotaxin 2 = biological target: T8, Eotaxin 2 (Homo sapiens, UniProt O00175); assay: Micro-array analysis of chemokine binding peptides: Eotaxin 2; conditions: limit = start of the upper 75% of that peptide's response range
T8 construct: purchased 300-33
T8 sequence (O00175 27-119): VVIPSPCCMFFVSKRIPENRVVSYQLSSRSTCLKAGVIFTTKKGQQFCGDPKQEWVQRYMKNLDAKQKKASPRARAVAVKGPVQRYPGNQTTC
Description: as §1, §2, §3, §4, §5, §6, §7, §8, §9, §10, §11

Exodus-2 = biological target: T9, Exodus-2 (Homo sapiens, UniProt O00585); assay: Micro-array analysis of chemokine binding peptides: Exodus-2
T9 construct: purchased 300-35
T9 sequence (O00585 24-134): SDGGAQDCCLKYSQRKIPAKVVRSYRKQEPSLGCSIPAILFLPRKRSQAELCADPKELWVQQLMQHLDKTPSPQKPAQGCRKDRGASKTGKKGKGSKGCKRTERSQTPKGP
Description: as §1, §2, §3, §4, §5, §6, §7, §8, §9, §10, §11

BCA-1 = biological target: T10, BCA-1 (Homo sapiens, UniProt O43927); assay: Micro-array analysis of chemokine binding peptides: BCA-1
T10 construct: purchased 300-47
T10 sequence (O43927 23-109): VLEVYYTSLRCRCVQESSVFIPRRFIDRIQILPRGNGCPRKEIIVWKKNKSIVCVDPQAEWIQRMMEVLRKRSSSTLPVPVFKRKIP
Description: as §1, §2, §3, §4, §5, §6, §7, §8, §9, §10, §11

IL-8 = assay: Micro-array analysis of chemokine binding peptides: IL-8
Description: as §1, §2, §3, §4, §5, §6, §7, §8, §9, §10, §11

Fractalkine = biological target: T11, Fractalkine (Homo sapiens, UniProt P78423); assay: Micro-array analysis of chemokine binding peptides: Fractalkine
T11 construct: purchased 300-31
T11 sequence (P78423 25-100 limits assumed): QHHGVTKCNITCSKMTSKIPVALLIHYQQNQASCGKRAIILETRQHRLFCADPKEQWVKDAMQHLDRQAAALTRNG
Description: as §1, §2, §3, §4, §5, §6, §7, §8, §9, §10, §11

I-TAC = biological target: T12, I-TAC (Homo sapiens, UniProt O14625); assay: Micro-array analysis of chemokine binding peptides: I-TAC
T12 construct: purchased 300-46
T12 sequence (O14625 22-94): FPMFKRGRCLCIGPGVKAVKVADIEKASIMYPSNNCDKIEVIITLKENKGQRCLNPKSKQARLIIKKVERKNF
Description: as §1, §2, §3, §4, §5, §6, §7, §8, §9, §10, §11

Mig = biological target: T13, Mig (Homo sapiens, UniProt Q07325); assay: Micro-array analysis of chemokine binding peptides: Mig
T13 construct: purchased 300-26
T13 sequence (Q07325 23-125): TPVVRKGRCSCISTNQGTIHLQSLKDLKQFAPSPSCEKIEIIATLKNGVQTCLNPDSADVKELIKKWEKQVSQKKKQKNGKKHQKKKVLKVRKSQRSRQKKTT
Description: as §1, §2, §3, §4, §5, §6, §7, §8, §9, §10, §11

Lymphotactin = biological target: T14, Lymphotactin (Homo sapiens, UniProt P47992); assay: Micro-array analysis of chemokine binding peptides: Lymphotactin
T14 construct: purchased 300-20
T14 sequence (P47992 22-114): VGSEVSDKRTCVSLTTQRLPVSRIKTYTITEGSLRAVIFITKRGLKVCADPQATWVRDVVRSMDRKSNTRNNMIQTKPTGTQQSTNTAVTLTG
Description: as §1, §2, §3, §4, §5, §6, §7, §8, §9, §10, §11

MCP-2 = biological target: T15, MCP-2 (Homo sapiens, UniProt P80075); assay: Micro-array analysis of chemokine binding peptides: MCP-2; conditions: limit = start of the upper 75% of that peptide's response range
T15 construct: purchased 300-15
T15 sequence (P80075 24-99): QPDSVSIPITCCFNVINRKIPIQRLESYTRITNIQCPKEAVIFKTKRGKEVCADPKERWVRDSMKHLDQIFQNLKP
Description: as §1, §2, §3, §4, §5, §6, §7, §8, §9, §10, §11

Eotaxin = biological target: T16, Eotaxin (Homo sapiens, UniProt P51671); assay: Micro-array analysis of chemokine binding peptides: Eotaxin
T16 construct: purchased 300-21
Description: as §1, §2, §3, §4, §5, §6, §7, §8, §9, §10, §11

Eotaxin 3 = biological target: T17, Eotaxin 3 (Homo sapiens, UniProt Q9Y258); assay: Micro-array analysis of chemokine binding peptides: Eotaxin 3
T17 construct: purchased 300-48
T17 sequence (Q9Y258 24-94): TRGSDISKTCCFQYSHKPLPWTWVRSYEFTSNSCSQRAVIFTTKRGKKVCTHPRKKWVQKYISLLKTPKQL
Description: as §1, §2, §3, §4, §5, §6, §7, §8, §9, §10, §11

GRO-β = biological target: T18, GRO-β (Homo sapiens, UniProt P19875); assay: Micro-array analysis of chemokine binding peptides: GRO-β
T18 construct: purchased 300-39
T18 sequence (P19875 35-107): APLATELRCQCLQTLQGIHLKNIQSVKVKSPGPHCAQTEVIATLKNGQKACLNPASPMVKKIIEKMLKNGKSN
Description: as §1, §2, §3, §4, §5, §6, §7, §8, §9, §10, §11

[1] = limit = start of the upper 75% of that peptide's response range

T16 sequence (P51671 24-97): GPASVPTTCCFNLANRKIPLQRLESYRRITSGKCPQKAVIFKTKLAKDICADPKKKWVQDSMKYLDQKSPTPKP
Sequence of IL-8 (P10145 28-99 limits assumed): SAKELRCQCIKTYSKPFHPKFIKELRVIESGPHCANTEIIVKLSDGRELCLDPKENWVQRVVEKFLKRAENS
T7 sequence (P13500 24-99): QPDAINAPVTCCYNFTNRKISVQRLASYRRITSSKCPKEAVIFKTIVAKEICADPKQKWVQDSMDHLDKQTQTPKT
T5 sequence (Q99616 17-98): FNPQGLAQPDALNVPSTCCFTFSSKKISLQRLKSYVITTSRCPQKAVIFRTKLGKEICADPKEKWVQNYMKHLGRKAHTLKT
T3 sequence (P48061 22-93): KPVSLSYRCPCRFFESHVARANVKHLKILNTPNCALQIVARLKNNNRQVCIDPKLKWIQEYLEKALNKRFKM
T4 sequence (P48061 22-89 limits assumed): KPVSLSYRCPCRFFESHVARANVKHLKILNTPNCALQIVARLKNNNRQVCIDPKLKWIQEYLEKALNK

DYDYG (listed as Homo sapiens) [Ph-p31]
binding to RANTES with relatively high affinity (Relative Fluorescence Units) (RANTES): > 15,000 RFU
binding to TECK, stated in words (TECK): bound
binding to SDF1-β, stated in words (SDF1-β): bound
binding to SDF1-α, stated in words (SDF1-α): bound
binding to MCP-4 with relatively high affinity (Relative Fluorescence Units) (MCP-4; [1]): > 15,000 RFU
binding to I-309 with relatively high affinity (Relative Fluorescence Units) (I-309): > 15,000 RFU
binding to MCP-1 with relatively high affinity (Relative Fluorescence Units) (MCP-1; [1]): > 15,000 RFU
binding to Eotaxin 2 with relatively high affinity (Relative Fluorescence Units) (Eotaxin 2): > 15,000 RFU
binding to Exodus-2, stated in words (Exodus-2): bound
binding to BCA-1, stated in words (BCA-1): bound
binding to IL-8 with relatively high affinity (Relative Fluorescence Units) (IL-8; [1]): > 15,000 RFU
binding to Fractalkine, stated in words (Fractalkine): bound
binding to I-TAC with relatively high affinity (Relative Fluorescence Units) (I-TAC; [1]): > 15,000 RFU
binding to Mig with relatively high affinity (Relative Fluorescence Units) (Mig; [1]): > 15,000 RFU
binding to Lymphotactin, stated in words (Lymphotactin): bound
binding to MCP-2 with relatively high affinity (Relative Fluorescence Units) (MCP-2): > 15,000 RFU
binding to Eotaxin with relatively high affinity (Relative Fluorescence Units) (Eotaxin; [1]): > 15,000 RFU
binding to Eotaxin 3 with relatively high affinity (Relative Fluorescence Units) (Eotaxin 3; [1]): > 15,000 RFU

HYTCSSHFP [Ph-p17]
binding to TECK, stated in words (TECK): bound
binding to MCP-4, stated in words (MCP-4): bound
binding to MCP-1, stated in words (MCP-1): bound
binding to GRO-β, stated in words (GRO-β): bound
binding to IL-8, stated in words (IL-8): bound
binding to I-TAC, stated in words (I-TAC): bound
binding to Mig, stated in words (Mig): bound
binding to Lymphotactin, stated in words (Lymphotactin): bound
binding to Eotaxin, stated in words (Eotaxin): bound
binding to Eotaxin 3, stated in words (Eotaxin 3): bound

From patent publication US12072338B2, “Pharmaceutical peptides for the treatment of inflammatory diseases” (PROTAGONISTS LTD., priority 2007, dated 2024)
